Measured values reported in PMC12416549 (2024).
Residue numbers refer to the chain shown, from its start. Numbers in names are those of the source.

T1: TNFR1 (Homo sapiens, UniProt P19438)
T1 chain: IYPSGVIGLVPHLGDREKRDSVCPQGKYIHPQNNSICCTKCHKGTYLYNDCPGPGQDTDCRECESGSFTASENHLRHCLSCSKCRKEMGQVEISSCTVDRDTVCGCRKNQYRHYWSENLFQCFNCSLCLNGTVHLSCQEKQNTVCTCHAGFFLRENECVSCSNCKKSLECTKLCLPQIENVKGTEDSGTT

B1: E58G (designed binder)
chain: MTLQELLREEALRRAEAEAFRYALELLAEKFPEQKEYLLDLAEEIESQIRSLSGVDVGDVRKFLDKEWAWVKELLAEHPAELAEVEAARAARLAELRAEVEAKVAA
B2: E67A (designed binder)
chain: B1 chain with G58E, E67A
B3: M1H (designed binder)
chain: B1 chain with M1H, G58E
B4: L12Q (designed binder)
chain: B1 chain with L12Q, G58E
B5: G54L (designed binder)
chain: B1 chain with G54L, G58E
B6: K62H (designed binder)
chain: B1 chain with G58E, K62H
B7: E29F (designed binder)
chain: B1 chain with E29F, G58E
B8: Q34N (designed binder)
chain: B1 chain with Q34N, G58E
B9: W70S (designed binder)
chain: B1 chain with G58E, W70S
B10: W68Q (designed binder)
chain: B1 chain with G58E, W68Q
B11: E81P (designed binder)
chain: B1 chain with G58E, E81P
B12: K72T (designed binder)
chain: B1 chain with G58E, K72T
B13: E18F (designed binder)
chain: B1 chain with E18F, G58E
B14: V57C (designed binder)
chain: B1 chain with V57C, G58E
B15: D59K (designed binder)
chain: B1 chain with G58E, D59K
B16: E10C (designed binder)
chain: B1 chain with E10C, G58E
B17: L52K (designed binder)
chain: B1 chain with L52K, G58E
B18: E16A (designed binder)
chain: B1 chain with E16A, G58E
B19: P32C (designed binder)
chain: B1 chain with P32C, G58E
B20: L12R (designed binder)
chain: B1 chain with L12R, G58E
B21: P32K (designed binder)
chain: B1 chain with P32K, G58E
B22: L93Q (designed binder)
chain: B1 chain with G58E, L93Q
B23: K72A (designed binder)
chain: B1 chain with G58E, K72A
B24: Q48M (designed binder)
chain: B1 chain with Q48M, G58E
B25: L7R (designed binder)
chain: B1 chain with L7R, G58E
B26: A102Q (designed binder)
chain: B1 chain with G58E, A102Q
B27: E67I (designed binder)
chain: B1 chain with G58E, E67I
B28: D56Y (designed binder)
chain: B1 chain with D56Y, G58E
B29: V85G (designed binder)
chain: B1 chain with G58E, V85G
B30: R8H (designed binder)
chain: B1 chain with R8H, G58E
B31: A98Q (designed binder)
chain: B1 chain with G58E, A98Q
B32: K35M (designed binder)
chain: B1 chain with K35M, G58E
B33: L93D (designed binder)
chain: B1 chain with G58E, L93D
B34: L3D (designed binder)
chain: B1 chain with L3D, G58E
B35: W68M (designed binder)
chain: B1 chain with G58E, W68M
B36: E5V (designed binder)
chain: B1 chain with E5V, G58E
B37: L24K (designed binder)
chain: B1 chain with L24K, G58E
B38: D65T (designed binder)
chain: B1 chain with G58E, D65T
B39: L41F (designed binder)
chain: B1 chain with L41F, G58E
B40: W68T (designed binder)
chain: B1 chain with G58E, W68T
B41: D59C (designed binder)
chain: B1 chain with G58E, D59C
B42: W70V (designed binder)
chain: B1 chain with G58E, W70V
B43: I49G (designed binder)
chain: B1 chain with I49G, G58E
B44: L3F (designed binder)
chain: B1 chain with L3F, G58E
B45: S47F (designed binder)
chain: B1 chain with S47F, G58E
B46: E73W (designed binder)
chain: B1 chain with G58E, E73W
B47: A19P (designed binder)
chain: B1 chain with A19P, G58E
B48: P79G (designed binder)
chain: B1 chain with G58E, P79G
B49: L93W (designed binder)
chain: B1 chain with G58E, L93W
B50: R14Y (designed binder)
chain: B1 chain with R14Y, G58E
B51: M1N (designed binder)
chain: B1 chain with M1N, G58E
B52: L26V (designed binder)
chain: B1 chain with L26V, G58E
B53: E5A (designed binder)
chain: B1 chain with E5A, G58E
B54: R61L (designed binder)
chain: B1 chain with G58E, R61L
B55: L64Y (designed binder)
chain: B1 chain with G58E, L64Y
B56: A15Q (designed binder)
chain: B1 chain with A15Q, G58E
B57: D40A (designed binder)
chain: B1 chain with D40A, G58E
B58: A11N (designed binder)
chain: B1 chain with A11N, G58E
B59: E33V (designed binder)
chain: B1 chain with E33V, G58E

Target: T1, TNFR1
Test: yeast display SC50

apparent Kd (screen)	Binder
0.49 nM	B1
12.5 nM	B2
0.539 nM	B3
0.79 nM	B4
16.7 nM	B5
0.718 nM	B6
0.653 nM	B7
0.539 nM	B8
12.5 nM	B9
5.31 nM	B10
0.718 nM	B11
0.718 nM	B12
0.539 nM	B13
0.539 nM	B14
0.869 nM	B15
16.7 nM	B16
1.05 nM	B17
0.539 nM	B18
0.539 nM	B19
0.49 nM	B20

apparent Kd (screen)	Binder
0.653 nM	B21
0.539 nM	B22
0.869 nM	B23
1.16 nM	B24
8.56 nM	B25
0.539 nM	B26
6.43 nM	B27
2.25 nM	B28
0.718 nM	B29
0.869 nM	B30
0.653 nM	B31
0.446 nM	B32
0.869 nM	B33
0.718 nM	B34
0.539 nM	B35
0.593 nM	B36
11.4 nM	B37
0.593 nM	B38
0.79 nM	B39
1.54 nM	B40

apparent Kd (screen)	Binder
13.8 nM	B41
20.2 nM	B42
1.05 nM	B43
2.25 nM	B44
0.49 nM	B45
0.653 nM	B46
9.41 nM	B47
0.956 nM	B48
0.539 nM	B49
0.49 nM	B50
0.49 nM	B51
0.79 nM	B52
0.79 nM	B53
0.539 nM	B54
0.49 nM	B55
0.718 nM	B56
0.539 nM	B57
0.405 nM	B58
0.718 nM	B59
